# From patent US10654925B2, “Anti-marinobufagenin antibodies and uses thereof” (priority 2018, dated 2020)
# B1: H3L2: humanized anti-MBG antibody, VH H3 (SEQ ID NO: 11) with VL L2 (SEQ ID NO: 13) (antibody, V domains shown)
# VH: EVQLQESGPGLVKPSETLSLTCTVSGDSITSGYWNWIRQPPGKGLEYMGYISYSGTTYYNPSLKSRITISRDTSKNQYSLKLSSVTAADTAVYYCARARYGYGFDYWGQGTLVTVSS
# VL: DVVMTQSPLSLPVTLGQPASISCRSSQSIVHSNRNTYLEWYQQRPGQSPRLLIYKVSNRFSGVPDRFSGSGSGTDFTLKISRVEAEDVGVYYCFQGSHVPLTFGGGTKVEIK
# modifications: Humanized VH sequence; Humanized VL sequence
# Experiments:
# [1] = Direct ELISA antigen binding of humanized anti-MBG; details: 2 μg/ml MBG-conjugated BSA coated; OD 450 nm; among the 6 humanized antibodies; FIG. 1a, 1b
# Experimental: The antigen binding of humanized anti-MGB was assayed in a direct Elisa assay. 2 μg/ml of MBG-conjugated BSA was coated in the Elisa plate. After blocking with 1% BSA, 2-fold dilution series of humanized anti-MBG was added to the plate. After washing, the bound antibody was detected by adding anti-human Fc HRP conjugate, and quantified by adding the TMB substrate. OD absorption at 450 nm was measured in a microplate reader.
# [2] = Competitive ELISA, free CTS competitors overall (summary and footnote); assay type: binding; details: competitors RBG, CINO, OUB, DIG; Table 2
# Experimental: (§1) The specificity (relative affinity) of anti-MBG antibodies for MBG relative to various cardiotonic steroids (CTSs) was determined in a competitive ELISA. Each anti-MBG antibody was tested for its binding to immobilized MBG in the presence of free MBG, resibufogenin (RBG), cinobufagin (CINO), ouabain (OUB) or digoxin (DIG) as a competitor. A constant amount of an anti-MBG antibody (typically 1-5 μg/mL) and varying concentrations of each CTS (from 10^−12M to 10^−5M) were pre-incubated before being added to the MBG-BSA-coated wells. After washing of the wells, an anti-human Fc, HRP-conjugated secondary antibody (at 1:5000 dilution) was added to the wells and incubated at 37° C. for 1 hr. After washing of the wells, an appropriate HRP reagent (e.g., TMB ultra, Thermo Fisher) was added to the wells. OD at 450 nm was measured by a microplate reader. MBG at 10 μM was assumed to be 100% competed, and MBG at 1 pM was assumed to be 0% competed. The data was plotted as a titration of antibody-antigen binding relative to free CTS concentration in the competition reaction to determine the free CTS concentration (μM) giving 50% maximal binding of antibody to immobilized MBG. The relative specificity of an antibody for a CTS was normalized to MBG=100%.
# [3] = ELISA avidity estimate on MBG-BSA; assay type: binding; details: wells coated with 2 μg/ml MBG-BSA; IgG
# Experimental: The avidity of anti-MBG antibodies for MBG was estimated in an ELISA. Wells of a microtiter plate were coated with 2 μg/ml of either MBG-bovine serum albumin (BSA) or MBG-keyhole limpet hemocyanin (KLH). The wells were then blocked with 1% BSA. A test IgG antibody at varying concentrations (typically from about 0.0001 nM to about 25 nM) was added to the wells. The test IgG bound to immobilized MBG was detected with an anti-human Fc, horseradish peroxidase (HRP)-conjugated secondary antibody (Jackson ImmunoResearch). After washing of the wells, an appropriate HRP reagent (e.g., TMB ultra, Thermo Fisher) was added to the wells. Optical density (OD) at 450 nm was measured by a microplate reader. The concentration of test antibody at the midpoint of the binding curve is an estimate of avidity for MBG.
# [4] = Competitive ELISA, relative CTS specificity, RBG as competitor; assay type: binding; details: competition with immobilized MBG-BSA; normalized to MBG = 100%
# Experimental: as §1
# [5] = test system: pregnant Sprague-Dawley rats; test: DOCA/saline rat model of pre-eclampsia; assay type: in vivo; details: tail cuff; baseline; antibodies 2.2 mg/kg/d i.p. days 16-18 in PDS (DOCA/saline) rats; MBG 7.65 μg/kg/d in normal pregnant rats (NPM); N = 10
# [6] = Competitive ELISA, relative CTS specificity, OUB as competitor; assay type: binding; details: competition with immobilized MBG-BSA; normalized to MBG = 100%
# Experimental: as §1
# [7] = test system: human umbilical cord venous endothelial cells (HUVEC); test: Reversal of MBG inhibition of HUVEC cell proliferation (3H-thymidine); assay type: cell-based; details: MBG 2 nM, antibody 2.5-10 μg/mL, 48 hr; FIG. 3b
# Experimental: MBG (2 nM) was incubated with an antibody (20 μg/mL in FIG. 3a with human anti-MBG mAbs, or varying concentrations (2.5-10 μg/mL) in FIG. 3b with humanized anti-MBG mAbs) prior to addition to cultured human umbilical cord venous endothelial cells (HUVEC). After 48 hr, DNA synthesis was assessed by incorporation of ^3H-thymidine.
# HUVEC cells in endothelial cell growth medium were plated onto 96-well plates. The next day, the cells were pretreated with various antibodies (2.5-20 μg/mL) and then incubated with 2 nM MBG for 48 hr. [^3H]-Thymidine was added to each well. [^3H]-Thymidine-labeled DNA was assayed by harvesting the cells and assaying for ^3H using a PerkinElmer Wallac Tailux liquid scintillation counter. […] Means were tested for significance using Student's t-test.
molecule,measurement,setting,value
B1,binding affinity in direct ELISA,[1],highest binding affinity
same,reaction with CTS competitor molecules,[2],did not react with any of the CTS competitor molecules
same,"Estimated avidity (KA) (antibody concentration at 50% maximal binding to antigen, or EC50), Antigen 1 (MBG-BSA)",[3],0.6 nM
same,Rel. CTS Specificity as % of MBG Binding: RBG,[4],0%
same,Blood Pressure-Initial,[5],104 ± 5 mm Hg
same,Rel. CTS Specificity as % of MBG Binding: OUB,[6],0%
same,"MBG inhibition of HUVEC cell proliferation, humanized mAbs",[7],significantly reduced
